Experimental data taken from article PMC5182059.

B1: Ric-8A (1-491) G457A (domain or fragment)
chain: MEPRAVADALETGEEDAVTEALRSFNREHSQSFTFDDAQQEDRKRLAKLLVSVLEQGLSPKHRVTWLQTIRILSRDRSCLDSFASRQSLHALACYADIAISEEPIPQPPDMDVLLESLKCLCNLVLSSPTAQMLAAEARLVVRLAERVGLYRKRSYPHEVQFFDLRLLFLLTALRTDVRQQLFQELHGVRLLTDALELTLGVAPKENPLVILPAQETERAMEILKVLFNITYDSVKREVDEEDAALYRYLGTLLRHCVMADAAGDRTEEFHGHTVNLLGNLPLKCLDVLLALELHEGSLEFMGVNMDVINALLAFLEKRLHQTHRLKECVAPVLSVLTECARMHRPARKFLKAQVLPPLRDVRTRPEVGDLLRNKLVRLMTHLDTDVKRVAAEFLFVLCSESVPRFIKYTGYGNAAGLLAARGLMAGGRPEGQYSEDEDTDTEEYREAKASINPVTARVEEKPPNPMEGMTEEQKEHEAMKLVNMFDKLSR
B2: Ric-8A (1-491), rat (Resistance to Inhibitors of Cholinesterase 8A) (domain or fragment)
chain: MEPRAVADALETGEEDAVTEALRSFNREHSQSFTFDDAQQEDRKRLAKLLVSVLEQGLSPKHRVTWLQTIRILSRDRSCLDSFASRQSLHALACYADIAISEEPIPQPPDMDVLLESLKCLCNLVLSSPTAQMLAAEARLVVRLAERVGLYRKRSYPHEVQFFDLRLLFLLTALRTDVRQQLFQELHGVRLLTDALELTLGVAPKENPLVILPAQETERAMEILKVLFNITYDSVKREVDEEDAALYRYLGTLLRHCVMADAAGDRTEEFHGHTVNLLGNLPLKCLDVLLALELHEGSLEFMGVNMDVINALLAFLEKRLHQTHRLKECVAPVLSVLTECARMHRPARKFLKAQVLPPLRDVRTRPEVGDLLRNKLVRLMTHLDTDVKRVAAEFLFVLCSESVPRFIKYTGYGNAAGLLAARGLMAGGRPEGQYSEDEDTDTEEYREAKASINPVTGRVEEKPPNPMEGMTEEQKEHEAMKLVNMFDKLSR
B3: Ric-8A (1-491) P463A (domain or fragment)
chain: MEPRAVADALETGEEDAVTEALRSFNREHSQSFTFDDAQQEDRKRLAKLLVSVLEQGLSPKHRVTWLQTIRILSRDRSCLDSFASRQSLHALACYADIAISEEPIPQPPDMDVLLESLKCLCNLVLSSPTAQMLAAEARLVVRLAERVGLYRKRSYPHEVQFFDLRLLFLLTALRTDVRQQLFQELHGVRLLTDALELTLGVAPKENPLVILPAQETERAMEILKVLFNITYDSVKREVDEEDAALYRYLGTLLRHCVMADAAGDRTEEFHGHTVNLLGNLPLKCLDVLLALELHEGSLEFMGVNMDVINALLAFLEKRLHQTHRLKECVAPVLSVLTECARMHRPARKFLKAQVLPPLRDVRTRPEVGDLLRNKLVRLMTHLDTDVKRVAAEFLFVLCSESVPRFIKYTGYGNAAGLLAARGLMAGGRPEGQYSEDEDTDTEEYREAKASINPVTGRVEEKAPNPMEGMTEEQKEHEAMKLVNMFDKLSR
B4: Ric-8A (1-491) N465A (domain or fragment)
chain: MEPRAVADALETGEEDAVTEALRSFNREHSQSFTFDDAQQEDRKRLAKLLVSVLEQGLSPKHRVTWLQTIRILSRDRSCLDSFASRQSLHALACYADIAISEEPIPQPPDMDVLLESLKCLCNLVLSSPTAQMLAAEARLVVRLAERVGLYRKRSYPHEVQFFDLRLLFLLTALRTDVRQQLFQELHGVRLLTDALELTLGVAPKENPLVILPAQETERAMEILKVLFNITYDSVKREVDEEDAALYRYLGTLLRHCVMADAAGDRTEEFHGHTVNLLGNLPLKCLDVLLALELHEGSLEFMGVNMDVINALLAFLEKRLHQTHRLKECVAPVLSVLTECARMHRPARKFLKAQVLPPLRDVRTRPEVGDLLRNKLVRLMTHLDTDVKRVAAEFLFVLCSESVPRFIKYTGYGNAAGLLAARGLMAGGRPEGQYSEDEDTDTEEYREAKASINPVTGRVEEKPPAPMEGMTEEQKEHEAMKLVNMFDKLSR
B5: Ric-8A (1-491) E461A (domain or fragment)
chain: MEPRAVADALETGEEDAVTEALRSFNREHSQSFTFDDAQQEDRKRLAKLLVSVLEQGLSPKHRVTWLQTIRILSRDRSCLDSFASRQSLHALACYADIAISEEPIPQPPDMDVLLESLKCLCNLVLSSPTAQMLAAEARLVVRLAERVGLYRKRSYPHEVQFFDLRLLFLLTALRTDVRQQLFQELHGVRLLTDALELTLGVAPKENPLVILPAQETERAMEILKVLFNITYDSVKREVDEEDAALYRYLGTLLRHCVMADAAGDRTEEFHGHTVNLLGNLPLKCLDVLLALELHEGSLEFMGVNMDVINALLAFLEKRLHQTHRLKECVAPVLSVLTECARMHRPARKFLKAQVLPPLRDVRTRPEVGDLLRNKLVRLMTHLDTDVKRVAAEFLFVLCSESVPRFIKYTGYGNAAGLLAARGLMAGGRPEGQYSEDEDTDTEEYREAKASINPVTGRVEAKPPNPMEGMTEEQKEHEAMKLVNMFDKLSR
B6: Ric-8A (1-491) E460A (domain or fragment)
chain: MEPRAVADALETGEEDAVTEALRSFNREHSQSFTFDDAQQEDRKRLAKLLVSVLEQGLSPKHRVTWLQTIRILSRDRSCLDSFASRQSLHALACYADIAISEEPIPQPPDMDVLLESLKCLCNLVLSSPTAQMLAAEARLVVRLAERVGLYRKRSYPHEVQFFDLRLLFLLTALRTDVRQQLFQELHGVRLLTDALELTLGVAPKENPLVILPAQETERAMEILKVLFNITYDSVKREVDEEDAALYRYLGTLLRHCVMADAAGDRTEEFHGHTVNLLGNLPLKCLDVLLALELHEGSLEFMGVNMDVINALLAFLEKRLHQTHRLKECVAPVLSVLTECARMHRPARKFLKAQVLPPLRDVRTRPEVGDLLRNKLVRLMTHLDTDVKRVAAEFLFVLCSESVPRFIKYTGYGNAAGLLAARGLMAGGRPEGQYSEDEDTDTEEYREAKASINPVTGRVAEKPPNPMEGMTEEQKEHEAMKLVNMFDKLSR
B7: Ric-8A (1-491) P464A (domain or fragment)
chain: MEPRAVADALETGEEDAVTEALRSFNREHSQSFTFDDAQQEDRKRLAKLLVSVLEQGLSPKHRVTWLQTIRILSRDRSCLDSFASRQSLHALACYADIAISEEPIPQPPDMDVLLESLKCLCNLVLSSPTAQMLAAEARLVVRLAERVGLYRKRSYPHEVQFFDLRLLFLLTALRTDVRQQLFQELHGVRLLTDALELTLGVAPKENPLVILPAQETERAMEILKVLFNITYDSVKREVDEEDAALYRYLGTLLRHCVMADAAGDRTEEFHGHTVNLLGNLPLKCLDVLLALELHEGSLEFMGVNMDVINALLAFLEKRLHQTHRLKECVAPVLSVLTECARMHRPARKFLKAQVLPPLRDVRTRPEVGDLLRNKLVRLMTHLDTDVKRVAAEFLFVLCSESVPRFIKYTGYGNAAGLLAARGLMAGGRPEGQYSEDEDTDTEEYREAKASINPVTGRVEEKPANPMEGMTEEQKEHEAMKLVNMFDKLSR
B8: Ric-8A (1-491) V459A (domain or fragment)
chain: MEPRAVADALETGEEDAVTEALRSFNREHSQSFTFDDAQQEDRKRLAKLLVSVLEQGLSPKHRVTWLQTIRILSRDRSCLDSFASRQSLHALACYADIAISEEPIPQPPDMDVLLESLKCLCNLVLSSPTAQMLAAEARLVVRLAERVGLYRKRSYPHEVQFFDLRLLFLLTALRTDVRQQLFQELHGVRLLTDALELTLGVAPKENPLVILPAQETERAMEILKVLFNITYDSVKREVDEEDAALYRYLGTLLRHCVMADAAGDRTEEFHGHTVNLLGNLPLKCLDVLLALELHEGSLEFMGVNMDVINALLAFLEKRLHQTHRLKECVAPVLSVLTECARMHRPARKFLKAQVLPPLRDVRTRPEVGDLLRNKLVRLMTHLDTDVKRVAAEFLFVLCSESVPRFIKYTGYGNAAGLLAARGLMAGGRPEGQYSEDEDTDTEEYREAKASINPVTGRAEEKPPNPMEGMTEEQKEHEAMKLVNMFDKLSR
B9: Ric-8A (1-491) R458A (domain or fragment)
chain: MEPRAVADALETGEEDAVTEALRSFNREHSQSFTFDDAQQEDRKRLAKLLVSVLEQGLSPKHRVTWLQTIRILSRDRSCLDSFASRQSLHALACYADIAISEEPIPQPPDMDVLLESLKCLCNLVLSSPTAQMLAAEARLVVRLAERVGLYRKRSYPHEVQFFDLRLLFLLTALRTDVRQQLFQELHGVRLLTDALELTLGVAPKENPLVILPAQETERAMEILKVLFNITYDSVKREVDEEDAALYRYLGTLLRHCVMADAAGDRTEEFHGHTVNLLGNLPLKCLDVLLALELHEGSLEFMGVNMDVINALLAFLEKRLHQTHRLKECVAPVLSVLTECARMHRPARKFLKAQVLPPLRDVRTRPEVGDLLRNKLVRLMTHLDTDVKRVAAEFLFVLCSESVPRFIKYTGYGNAAGLLAARGLMAGGRPEGQYSEDEDTDTEEYREAKASINPVTGAVEEKPPNPMEGMTEEQKEHEAMKLVNMFDKLSR
B10: Ric-8A (1-491) K462A (domain or fragment)
chain: MEPRAVADALETGEEDAVTEALRSFNREHSQSFTFDDAQQEDRKRLAKLLVSVLEQGLSPKHRVTWLQTIRILSRDRSCLDSFASRQSLHALACYADIAISEEPIPQPPDMDVLLESLKCLCNLVLSSPTAQMLAAEARLVVRLAERVGLYRKRSYPHEVQFFDLRLLFLLTALRTDVRQQLFQELHGVRLLTDALELTLGVAPKENPLVILPAQETERAMEILKVLFNITYDSVKREVDEEDAALYRYLGTLLRHCVMADAAGDRTEEFHGHTVNLLGNLPLKCLDVLLALELHEGSLEFMGVNMDVINALLAFLEKRLHQTHRLKECVAPVLSVLTECARMHRPARKFLKAQVLPPLRDVRTRPEVGDLLRNKLVRLMTHLDTDVKRVAAEFLFVLCSESVPRFIKYTGYGNAAGLLAARGLMAGGRPEGQYSEDEDTDTEEYREAKASINPVTGRVEEAPPNPMEGMTEEQKEHEAMKLVNMFDKLSR

Biological target: myristoylated Gαi1 harboring a hexahistidine tag in the helical domain (rat) (UniProt P10824)
Chain of UniProt P10824 (P10824 whole entry, the tested form may be a part): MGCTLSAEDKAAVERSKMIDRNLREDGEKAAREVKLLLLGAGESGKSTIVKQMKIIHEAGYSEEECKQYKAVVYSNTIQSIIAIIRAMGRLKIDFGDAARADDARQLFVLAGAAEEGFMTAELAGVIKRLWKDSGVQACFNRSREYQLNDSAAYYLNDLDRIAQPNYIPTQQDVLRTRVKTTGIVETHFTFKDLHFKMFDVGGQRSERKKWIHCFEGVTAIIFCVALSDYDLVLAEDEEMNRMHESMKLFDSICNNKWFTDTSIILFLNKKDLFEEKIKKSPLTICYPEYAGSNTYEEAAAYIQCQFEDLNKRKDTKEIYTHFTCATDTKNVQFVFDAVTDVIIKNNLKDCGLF

First: B1
Second: B2
The v1: initial velocity of GDP to GTPγS exchange at Gαi1•GDP (2 μM) on adding GTPγS (10 μM) and Ric-8A (2 μM), tryptophan fluorescence, 25°C of the first is lower: 3.47 µM/min for the first, 3.84 µM/min for the second.

Going from B3 to B4, the v1: initial velocity of GDP to GTPγS exchange at Gαi1•GDP (2 μM) on adding GTPγS (10 μM) and Ric-8A (2 μM), tryptophan fluorescence, 25°C falls from 2.9 µM/min to 2.25 µM/min.

First: B5
Second: B6
The v1: initial velocity of GDP to GTPγS exchange at Gαi1•GDP (2 μM) on adding GTPγS (10 μM) and Ric-8A (2 μM), tryptophan fluorescence, 25°C of the first is higher: 7.45 µM/min for the first, 6.54 µM/min for the second.

Compared with B7, B8 is higher in v1: initial velocity of GDP to GTPγS exchange at Gαi1•GDP (2 μM) on adding GTPγS (10 μM) and Ric-8A (2 μM), tryptophan fluorescence, 25°C: 2.83 µM/min for the first, 5.65 µM/min for the second.

Going from B9 to B10, the v1: initial velocity of GDP to GTPγS exchange at Gαi1•GDP (2 μM) on adding GTPγS (10 μM) and Ric-8A (2 μM), tryptophan fluorescence, 25°C rises from 0.63 µM/min to 4.46 µM/min.

Compared with B1, B2 is lower in v2: initial rate of GTPγS binding to pre-formed Gαi1:Ric-8A (2 μM each, incubated 5 min before 10 μM GTPγS), with release of Ric-8A, tryptophan fluorescence, 25°C: 6.02 µM/min for the first, 4.66 µM/min for the second.

Compared with B3, B4 is lower in v2: initial rate of GTPγS binding to pre-formed Gαi1:Ric-8A (2 μM each, incubated 5 min before 10 μM GTPγS), with release of Ric-8A, tryptophan fluorescence, 25°C: 4.78 µM/min for the first, 4.56 µM/min for the second.

Compared with B5, B6 is higher in v2: initial rate of GTPγS binding to pre-formed Gαi1:Ric-8A (2 μM each, incubated 5 min before 10 μM GTPγS), with release of Ric-8A, tryptophan fluorescence, 25°C: 5.06 µM/min for the first, 5.36 µM/min for the second.

Going from B7 to B8, the v2: initial rate of GTPγS binding to pre-formed Gαi1:Ric-8A (2 μM each, incubated 5 min before 10 μM GTPγS), with release of Ric-8A, tryptophan fluorescence, 25°C rises from 4.73 µM/min to 6.85 µM/min.

Compared with B9, B10 is higher in v2: initial rate of GTPγS binding to pre-formed Gαi1:Ric-8A (2 μM each, incubated 5 min before 10 μM GTPγS), with release of Ric-8A, tryptophan fluorescence, 25°C: 0.37 µM/min for the first, 5.15 µM/min for the second.
